According to the RNAGym collection of RNA variant scans (doi:10.1073/pnas.2313332121):

B1: TPR t1 (parent)
chain: GACCAAUCUGCCCUCAGAGCUCGAGAACAUCUUCGGAUGCAGAGGAGGCAGGCUUCGGUGGCGCGAUAGCGCCAACGUCCUCAACCUCCAAUGCAUCCCACCACAUGAUGAUGCCUGAAGAGCCUUGGUUUUUUG

Variants of: B1
Experiment: polymerase ribozyme fitness, log enrichment relative to wild type (log ratio); higher = more active; in vitro selection for triplet polymerase activity
Method in brief: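 The heterodimeric triplet polymerase ribozyme's subunits were each mutagenized into PCR-built libraries and transcribed. Every library was selected once, in triplicate, by annealing with a biotinylated primer, the partner subunit and triplets, incubating frozen at −7 °C, gel-excising extended constructs, capturing on streptavidin beads and running RT-PCR. Input and output libraries were Illumina-sequenced, with genotypes kept only at ≥10 input reads and ≥1 read per output. Fitness, from inverse-variance-weighted replicate averages, is the base-2 logarithm of genotype enrichment over wild-type enrichment.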

Variant	polymerase ribozyme fitness (log ratio)
GACCAAUCUGUCCUCAGAGCUCGAGGACAUCUUCGGAUGCAGAGAAGGCAGGCUUCGAUGGCGCGAUAGCGCCAACGUCCUCAACCUCCAAUGCAUCCCACCACAUGAUGAUGCCUGAAGAGCCUUGGUUUUUUG [C11U A26G G45A G58A]	-5.7
GACCAAUCUGUCCUGAGAGCUCGAGAACAUCUUCGGAUGCAGAGGAGGCAGGCUUCGGUGGCGCGAUAGCGCCAACGUCCUCAACCUCCAAUGCAUCCCACCACAUGAUGAAGCCUGAAGAGCCUUGGUUUUUUG [C11U C15G U112A]	-2.98
GACCAAUCUGUCCUUAGAGCUCGAGAACAUCUUCGGAUGCAGAGGAGGCAGGCUUCGGUGGCGCGAUAGCGCCAACGUCCUCAACCUCCAAUGCAUCCCACCACAUGAUGAUGCCUGAAGAGCCUUGGUUUUUUG [C11U C15U]	-2.2
GACCAAUCUGUCCUCAGGCCUCGAGAACAUCUUCGGAUGCAGGGGAGGCAGGCUUCGGUGGCUCGAUAGCGCCAACGUCCUCAACCUCCAAUGCAUCCCACCACAUGAUGAUGCCUGAAGAGCCUUGGUUUUUUG [C11U A18G G19C A43G G63U]	-4.05
GACCAAUCUGUCCUAAGAGCUCGAGGACAUCUUCGGAUGCAGAGGAGGCAGGGUUCGGUGGCUCGAUAGCGCCAACGUCCUCAACCUCCAAUGCAUCCCACCACAUGAUGAUGCCUGAACAGCCUUGGUUUUUUG [C11U C15A A26G C53G G63U G120C]	-4.53
GACCAAUCUGUCCUCAGAGCUCGAGAUCAUCUUCGGAUGCAGAGGAGGCAGCCUUCGGUGCCGCGAUAGCGCCAACGUCCUCAACCUCCAAUGCAUCCCACCACAUGAUGAUGCCUGAAGAGCCUUGGUUUUUUG [C11U A27U G52C G61C]	-4.18
GACCAAUCUGUCCUUAGAGCUCGAGAACAUCUUCGGAUGCAGAGGAGGCAGGCUUCGGUGACGCGAUAGCGCCAACGACCUCAACCUCCAAUACAUCCCACCACAUGAUGAUGCCUGAAGAGCCUUGGUUUUUUG [C11U C15U G61A U78A G93A]	-2.54
GACCAAUCUGUCCUCAGAGCUCGAGAACAUCUUCGGAUGCAGAGGAGGCAGGCUUCGGUGGCGCGAUAGCGCCAACGUCCUCAACCUCCAAUGCAUCCCACCACAUGAUGAUGCCUGGAGAGCCUUGGUUUUAUG [C11U A118G U133A]	-0.694
GACCAAUCUGUGCUUAGAGCUCGAGAACAUCUUCGGAUGCAGAGGAGGCAGGCUUCGGUGGCGCGAUAGUGCCAACGUCCUCAACCUCCAAUGCAUCCCACCACAUGAUGAUGCCUGAAGAGCCUUGGUUUUUUG [C11U C12G C15U C70U]	-1.83
GACCAAUCUGUCCUCAGAGCUCGAGAACGUCUUCGGAUGCAGAGGAGGCAGGUUUCGGUGGCGCGAUAGCGCCAACGUCCUCAACCUCCAAUGCAUCCCACCACAUGAUGAUGCCUGAAGAGCCUUGGUUUUUUG [C11U A29G C53U]	-2.33
GACCAAUCUGUACGCAGAGCUCGAGAACAUCUUCGUAUGCAGAGGAGGCAGGCUUCGGUGGCGCGAUAGCGCCAACGUCCUCAACCUCCAAUGCAUCCCACCACAUGAUGAUGCCUGAAGAGCCUUGGUUUUUUG [C11U C12A U14G G36U]	-4.16
GACCAAUCUGUCCUCAGAGCUCGAGAACAUCUUCGGAUGCAGGGGAGGCAGGCUUCGGUGGCGCGAUAGCGCCAACGUCCUCAACCUCCAAUGCAUCCCACCACAUGAUGAUGCCUGAAGAGCCUUGGUUUUUUG [C11U A43G]	-2.11
GACCAAUCUGUCCUCAGAGCUCGAGUACAUCUUCGGAUGCAGAGGAGGGAGGCUUCGGUGGCGCGAUAGCGCUAACGUCCUCAACCUCCAAUGCAUCCCACCACAUGAUGAUGCCUGAAGAGCCUUGGUUUUUUG [C11U A26U C49G C73U]	-3.93
GACCAAUCUGUCCUCAGAGCUCGAGAACAUCUUCGGAUGCAGAGGAGGCAGGCUUCGGUGGCGCGCUAGCGCCAACGUCCUCAACCUCCAAUGUAUCCCACCACAUGAUGAUGCCUGAAGAGCCUUGGUUUUUUG [C11U A66C C94U]	-1.69
GACCAAUCUGUCCUCAGAGCUCGAGAACAUCUUCGGAUGCAGAGGUGGCAGGCUUCGGUGGCGCGAUAGCGCCAACGUCCUCAACGUCCAAUGCAUCCCACCAUAUGAUGAUGCCUGAAGAGCCUUGGUUUUUUG [C11U A46U C86G C104U]	-2.24
GACCAAUCUGUCCUCAGAGCUCGAGAACAUCUUCGGAUGCGGAGGAGGCAGGCUUCGGUGGCGCGAUAGCGCCAACGGCCUCAACCUCCAAUGCAUUCCACCACAUGAUGAUGCCUGAAGAGCCUUGGUUUUUUG [C11U A41G U78G C97U]	-1.63
GACCAAUCUGGCCUCAGAGCUCGAGAACAUCUUCGGAUGCAGAGGAGGCAGGCUUCGGUGGCGCGAUAGCGCCAACGUCCUCAACCUCCAAUGCAUCCCACCACAUGAUGAUGCCUGAAGAGCCAUGGUUUUUUG [C11G U125A]	-0.25
GACCAAUCUGUUCUCAGAGCUCGAGAACAUCUUCGGAUGCAGAGGAGGCAGGCUUCGGUGGCGCGAUAGCGCCAACGUCCUCAACCUCCAAUGCAUCCCACCACAUGAUGCUGCCUGAAGAACCUUGGUUUUUUG [C11U C12U A111C G122A]	-0.0374
GACCAAUCUGUCCUCAGAGCUCGAGAACAUCUUCGGAUGCUGAGGAGGCAGGCUUCGGUGGUGCGAUAGCGCCAACGUCCUCAAACUCCAAUGCAUCCCACUACAUGAUGAUGGCUGAACAGCCUUGGUUUUUUG [C11U A41U C62U C85A C102U C114G G120C]	-6.27
GACCAAUCUGUCCUCAGCGCUCGAGAACCUCUUCGGAUGCAGAGGAGGCAGGCUUCGGUGGCGCGAUAGCGCCAACGUCCUCAACCUCCAAUGCAUCCCAACACAUGAUCAUGCCUGAAGAGCCUUGGUUUUUUG [C11U A18C A29C C101A G110C]	-7.19
GACCAAUCUGUCCUCAGAGCUCGAGUACAUCUUCGGAUGCAGAGGCGGGAGGCUUCGGUGGCGCGAUAGCGUCAACGUCCUCAACGUCCAAUGCAUCCCACCACAUGAUGAUGCCUGAAGAGCCUUGGUUUUUUG [C11U A26U A46C C49G C72U C86G]	-6.59

Variant	polymerase ribozyme fitness (log ratio)
GACCAAUCUGUCCUCAGAGCUCGAGAACAUCUUCGGAUGCAGUGGAGGCAGGGUUCGGUGGCGCGAUAGCGCCAACGUCCUCAACCUCCAAUGCAUCCCACCACAUGAUGAUGCCUGAAGAGCCUUGGUUUUUUG [C11U A43U C53G]	-2.46
GACCAAUCUGUCCUCAGAGCUCGAGAACAUCUUCGGGUGCAGAGGAGGCAGGCUUCGGUGGCGCGAUAGCGCCAACGUCCUCAACCUCCAAUGCAGCCCACCACAUGAUGAUGCCUGAAGAGCCUUGGUUUUUUG [C11U A37G U96G]	-2.69
GACCAAUCUGUCCUCAGAGGUCGAGAACAUCUUCGGAUGCAGAGGAGGCAGGCUUCGGUGGCGCGAUAGCGUCAACGUCCUCAACCUCCAAUGCAUCCCACCACAUGAUGAUGCCUGAAGAGCCUUGGUUUUUUG [C11U C20G C72U]	-3
GACCAAUCUGUCCUCAGAGCUCGAGAACAUCUUCGGAUGCAGAGGUGGCAGGCUUCGGUGGCGCGAUAGCGCCAACGUCCUCAACUUCCAAUGCAUCCCACCACAUGAUGAUGCCUGAAGAGCCUUGGUUUUUUG [C11U A46U C86U]	-2.1
GACCAAUCUGUCCUCAGAGCUCGAGAACAUCUUCGGAUGCAGAGGAGGCCGGCUUCGGUUGCGCGAUAGCGCCAACAUCCUCAACCUCCAAUGCAUCCCACCACAUGAUGAUGCCUGAAGAACCUUGGUUUUUUG [C11U A50C G60U G77A G122A]	0.303
GACCAAUCUGUACUCAGAGCUCGAGAACAUCUUCGGAUGCCGAGGAGGCAGGCUUGGGUGGCGCGAUAGCGCCAACGUCCUCAACCUCCAAUGCAUCCCACCACAUGAUGAUGCCUGAAGAGCCUUGGUUUUUUG [C11U C12A A41C C56G]	-2.42
GACCAAUCUGUCCUCAGAGAUCGAGAACAUCUUCGGAUGCAGAGGAGGCAGGCUUCGGUGGCGCGAUAGCGCCAACGUCCUCAACCACCACUGCAUCCCACCACAUGAUGAUGCCUGUAGAGCCUUGGUUUUUUG [C11U C20A U87A A91C A118U]	-2.95
GACCAAUCUGUCCUCAGAGCUCGAGAACAUCUUCGGAUGCAGUGGAGGCAGGCUUCGGUUGCGCGAUAGCGCCAACGUCCUCAACCUCCCAUGCAUCCCACCACAUGAUGAUGCCUGAAGAGCCUUGGUUUUUUG [C11U A43U G60U A90C]	-1.62
GACCAAUCUGUCCUGAGAGCUCGAGAACAUCUUCGCAUGCAGAGGAGGCAGGCUUCGGUGGCGCGAUAGCGCCAACGUCCUCAACCUCCAAUGCAUCCCACCACAUGAUGAUGCCUGAAGAGCCUUGGUUUUUUG [C11U C15G G36C]	-7.38
GACCAAUCUGUCCUCAGAGCUCGAGAACAUCUUCGGAUGCGGAGGAGGCAGGCUUCGGUGGCGCGAUAGCGCCAACGUCCUCAACCUCCAAUGCAUCCCACCAAAUGAUGAUGCCUGAAGAGUCCUGGUUUUUUG [C11U A41G C104A C123U U125C]	-1.19
GACCAAUCUGUCCUCAGAGAUCGAGAACUUCUUCGGAUGCAGAGGAGGCAGGCUUCGGUGGCGCGAUAGCGCCAACGUCCUCAACCUCCAAUGCAUCCCACCACAUGAUGAUGCCUUAAGAGCCUUGGUUUUUUG [C11U C20A A29U G117U]	-4.71
GACCAAUCUGUCCUCAGAGCUCGAGAACAUCUUCGGAUGCAGAGGAGGCAGGCUUCGGUGGCGCGAUAGCGCCAACGUCCUCAACCUCCAAUGCAUCCCACCACAUGAUGAUGCCUGAAGAGCCUUGGUUUUUUG [C11U]	-0.381
GACCAAUCUGUCCUCAGAGCUCGAGAACAUCUUCGGAUGCAGAGGAGGCAGGCUUCGGUGGCGCGAUAGCGCCAACGUCCUCAACCUCCAAUGCAUCCCACCACAUGAUGAUGCCUGAAGGGCCUUGGUUUUUUG [C11U A121G]	1.13
GACCAAUCUGGCCUCAGAGCUCGAGAACAUCUUCGGAUGCAGAGGAGGCAGGCUUCGGUGGCGCGAUAGCGCCAACGUCCUCAACCUCCAAUGCAGCCCACCACAUGAUGAUGCCUGAAGAGCCUUGGUUUUUUG [C11G U96G]	-0.325
GACCAAUCUGUCCUCAGCGCUCGAGAACAUCUUCGGAUGCAGAGGAGGCAGGCUUCGGUGGCGCGAUAGCGCUAACGUCCUCAACCUCCAAUGCAUCCCACCACAUGAUGAUGCCUGAAGAGCCUUAGUUUUUUG [C11U A18C C73U G127A]	-5.36
GACCAAUCUGUGCUCAGAGCUCGAGAAUAUCCUCGGAUGCAGAGGAGGAAGGCUUGGGUGGCGCGAUAGCGCCAACGUCCUCAACCUCCAAUGCAUCCCACCACAUGAUGAUGCCUGAAGAGCCUUGGUUUUUUG [C11U C12G C28U U32C C49A C56G]	-2.91
GACCAAUCUGGCCUCAGAGCUCGAGAACAUCUUCGGAUGCAGAGGAGGCAGGCUUCGGUGGCGCGAUAGCGCCAACGUCCUCAACCUCCAAUGCAUCCCACCACAUGAUGAUGCCUGAAGAGCCUCGGUUUUUUG [C11G U126C]	-0.774
GACCAAUCUGGCCUCAGAGCUCGAGAACAUCUUCGGAUGCAGAGGAGGCAGGCUUCGGUGGCGCGAUAGCGCCAACGUCCUCAACCUCCAAUGCAUCCCACCACAUGAUGAUGCCUGAAGAGCCUAGGUUUUUUG [C11G U126A]	-0.924
GACCAAUCUGUCCUCAGAGCUCGAGAUCAUCUUCGGAUGCAGAGGAGGCAGGCUUCGGUGGCGCGAUAGCGCCAACGUCCUCAACCUCCAAUGCAUCCCACCACAUGAUGAUGCCUGAAGAGCCUUGGUUUUUUG [C11U A27U]	-1.89
GACCAAUCUGUCCUCAGAGCUCGAGAUCAUCUUCGGAUGCAGAGGAGGCAGGCUUCGGUGGCGCGAUAGCGCCAACGUCCUCAACCUCCAAUGCAUCCCACCUCAUGAUGAUGCCUGAACAUCCUUGGUUUUUUG [C11U A27U A103U G120C G122U]	-5.67
GACCAAUCUGUCCUCAGAGCUCGUGAACAUCUUCGGAUGCAGAGGAGGCAGGCUUCGGUGGCGCCAUAGCGCCAACGUCCUCAACCUCCAAUGCAUCCCACCCCAUGUUGUUGCCUGAAGAGCCUUGGUUUUUUG [C11U A24U G65C A103C A108U A111U]	-6.52
